Source: patent US20110052597A1 (CSL, published 2011)

Assays:
[1] = molecular target: T1, N-terminal FLAG-tagged fusion protein including most of the extracellular region of human IL-13Rα1 (human, UniProt P78552 29-343); experiment: BIACORE, hIL-13Rα1.ECR immobilized on CM5 chip, mAb in solution, bivalent model
T1 construct: also called hIL-13Rα1.ECR; Human IL-13Rα1.ECR
T1 sequence: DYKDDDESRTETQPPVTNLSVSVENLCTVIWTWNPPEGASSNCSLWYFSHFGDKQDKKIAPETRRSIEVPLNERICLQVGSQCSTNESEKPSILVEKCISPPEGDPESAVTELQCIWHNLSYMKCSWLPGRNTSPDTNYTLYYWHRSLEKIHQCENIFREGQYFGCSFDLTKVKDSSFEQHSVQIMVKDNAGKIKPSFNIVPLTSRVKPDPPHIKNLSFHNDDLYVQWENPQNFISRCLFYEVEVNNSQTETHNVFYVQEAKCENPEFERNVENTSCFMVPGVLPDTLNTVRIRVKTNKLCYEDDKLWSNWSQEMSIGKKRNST
From the text: BIACORE™-Based Studies. […] Ethanolamine (1.0 M), pH 8.0 was used to quench residual active esters post hIL-13Rα1.ECR immobilization.
Sensorgrams generated were fitted to a bivalent ligand binding model to simultaneously derive association (kₐ) and dissociation (kd) rates and used to determine binding affinity (KD, Biaevaluation software, BIACORE™, Sweden).

[2] = molecular target: T2, cynomolgus IL-13Rα1.ECR, N-terminal FLAG-tagged fusion protein (cynomolgus macaque, UniProt P78552 27-343 (human entry)); experiment: BIACORE, receptor ECR immobilized on CM5 chip, mAb in solution
T2 construct: also called cyIL-13Rα1; Cynomolgus IL13Rα.ECR; not shown: N-terminal FLAG tag from the pEFBOS-S-FLAG vector
T2 chain: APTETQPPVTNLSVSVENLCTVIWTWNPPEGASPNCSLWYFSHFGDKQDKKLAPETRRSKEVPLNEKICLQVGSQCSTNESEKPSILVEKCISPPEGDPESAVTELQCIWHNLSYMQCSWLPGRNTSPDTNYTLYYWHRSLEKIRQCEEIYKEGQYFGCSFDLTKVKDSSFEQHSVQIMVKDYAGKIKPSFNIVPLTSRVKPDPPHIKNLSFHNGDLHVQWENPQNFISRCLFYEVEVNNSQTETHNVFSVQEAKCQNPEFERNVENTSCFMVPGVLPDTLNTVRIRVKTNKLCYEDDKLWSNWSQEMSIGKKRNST

[3] = molecular target: T1, N-terminal FLAG-tagged fusion protein …; experiment: as above

B1: human monoclonal antibody 15F4 (antibody, V domains shown)
VH: QVQLVESGGGVVQPGRSLRLSCAASGFTFSSYGMHWVRQAPGKGLEWVAVIWDDGSNKYYEVSVKGRFTISRDNSKNTLYLQMNSLRVEDTAVYYCARDSNNWYVGVFDIWGQGTMVTVSS
VL: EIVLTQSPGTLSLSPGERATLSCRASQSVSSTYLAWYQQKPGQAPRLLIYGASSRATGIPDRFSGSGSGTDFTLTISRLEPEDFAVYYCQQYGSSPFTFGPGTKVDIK
notes: also called mAb 15F4; hybridoma ATCC PTA-6935
Q: How did the Kd [1] turn out when B1 was run?
A: ~2.17 nM

B2: monoclonal antibody 8B4 (antibody, V domains shown)
VH: EVQVLESGGGLVQPGGSLRLSCAASGFTFSNYAMTWVRQAPGKGLEWVSTISGRGYSIYYADSVKGRFTISRDNSKNTVYLQMNSLRAEDTAVYYCAKEEGHWYFDVWGRGTLVTVSS
VL: EIVLTQSPDFQSVTPKEKVTITCRASQSIGSSLHWYQQKPDQSPKLLIKYASQSFSGVPSRFSGSGSGTDFTLTINSLEAEDAAAYYCHQSSSLPYTFGQGTKLEIK
Q: For B2, which Kd [2] is on record?
A: 0.59 nM

Q: And the Kd [3]?
A: 4.6 nM
